Data: patent publication US20170368136A1 (REGENTS OF THE UNIVERSITY OF COLORADO A BODY CORPORATE, published 2017)

Target: CaMKII
Test: cell-based or functional assay

CaMKII, sequence (chain, from a related filing, as listed by the source): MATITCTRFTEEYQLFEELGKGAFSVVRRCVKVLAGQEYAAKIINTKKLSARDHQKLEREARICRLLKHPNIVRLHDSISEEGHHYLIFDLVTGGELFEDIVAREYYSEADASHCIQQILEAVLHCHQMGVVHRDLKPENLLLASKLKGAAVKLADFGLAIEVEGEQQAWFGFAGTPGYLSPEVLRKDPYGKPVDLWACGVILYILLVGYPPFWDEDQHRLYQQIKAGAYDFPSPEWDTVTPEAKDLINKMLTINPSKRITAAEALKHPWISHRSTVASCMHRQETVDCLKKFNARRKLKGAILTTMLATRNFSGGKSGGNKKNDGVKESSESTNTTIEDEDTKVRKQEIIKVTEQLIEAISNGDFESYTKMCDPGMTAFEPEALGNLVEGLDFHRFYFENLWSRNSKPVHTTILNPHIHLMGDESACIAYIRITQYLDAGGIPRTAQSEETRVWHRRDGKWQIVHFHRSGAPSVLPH

B1: CN19 S12A (peptide)
peptide: KRPPKLGQIGRAKRVVIED
fold decrease of potency of CaMKII inhibition against CN19: > 3 fold

B2: CN19 R11A (peptide)
peptide: KRPPKLGQIGASKRVVIED
fold reduction of potency of CaMKII inhibition against CN19: > 3 fold

B3: CN19a2v (peptide)
peptide: KRAPKLGQIGRVKAVVIED
IC50 of CaMKII inhibition (syntide 2): ~20 nM
fold potency of CaMKII inhibition against CN19: ~5 fold

B4: CN19o (peptide)
peptide: KRAPKLGQIGRQKAVDIED
IC50 of CaMKII inhibition (CaMKII activity assay, 0.1 nM CaMKII): ~0.75 nM
fold potency of CaMKII inhibition against CN19: > 125 fold

B5: CN19 R14A (peptide)
peptide: KRPPKLGQIGRSKAVVIED
fold increase of potency of CaMKII inhibition against CN19 wild type: > 10 fold

B6: CN20 (peptide)
peptide: KRPPKLGQIGRSKRVVIEDD
IC50, phosphorylation of syntide 2 by CaMKII: ~100 nM

B7: CN19 (peptide)
peptide: KRPPKLGQIGRSKRVVIED
IC50, phosphorylation of syntide 2 by CaMKII: ~100 nM

B8: CN19a2v V16D (peptide)
peptide: KRAPKLGQIGRVKAVDIED
IC50 of CaMKII inhibition: ~1 nM

B9: CN19a2v V12Q (peptide)
peptide: KRAPKLGQIGRQKAVVIED
IC50 of CaMKII inhibition: ~1 nM
